Laboratory results from US20050282743A1, “Molecular interactions in cells” (Arbor Vita Corporation, priority 2001, published 2005).

Columns and labels:
Experiment in all cases: G' assay
[1] = molecular target: T1, GST-AIPC PDZ domain 1 (Homo sapiens (Human)), O15018
T1 chain: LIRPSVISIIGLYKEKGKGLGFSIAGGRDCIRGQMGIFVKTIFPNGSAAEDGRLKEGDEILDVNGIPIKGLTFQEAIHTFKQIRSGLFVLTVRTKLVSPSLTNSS

[2] = molecular target: T2, GST-LIM Mystique PDZ domain 1 (Homo sapiens (Human)), Q96JY6
T2 chain: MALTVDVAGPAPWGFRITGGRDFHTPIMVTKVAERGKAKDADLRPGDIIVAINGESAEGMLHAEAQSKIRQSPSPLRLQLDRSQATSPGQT

[3] = molecular target: GST-PAR3 PDZ domain 3 (Homo sapiens (Human)), Q8TEW0
[4] = molecular target: T3, GST-KIAA1526 PDZ domain 1 (Homo sapiens (Human)), Q9P202
T3 chain: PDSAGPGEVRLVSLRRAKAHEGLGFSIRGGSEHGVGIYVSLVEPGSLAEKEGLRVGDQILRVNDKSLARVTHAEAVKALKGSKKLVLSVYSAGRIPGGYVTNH

[5] = molecular target: T4, GST-HEMBA 1003117 PDZ domain 1 (Homo sapiens (Human)), Q96JH8
T4 chain: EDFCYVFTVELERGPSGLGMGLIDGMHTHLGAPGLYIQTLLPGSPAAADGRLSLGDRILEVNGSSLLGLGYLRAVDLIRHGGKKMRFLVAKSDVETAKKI

[6] = molecular target: T5, GST-TIP1 PDZ domain 1 (Table 9 insert) (Homo sapiens (Human)), O14907
T5 chain: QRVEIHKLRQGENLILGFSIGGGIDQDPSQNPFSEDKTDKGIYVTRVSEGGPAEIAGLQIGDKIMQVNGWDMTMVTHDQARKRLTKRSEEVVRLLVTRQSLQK

[7] = molecular target: GST-KIAA1634 PDZ domain 5 (Homo sapiens (Human)), Q5TCQ9
[8] = molecular target: T6, GST-KIAA0807(S) PDZ domain 1 (Homo sapiens (Human)), Q6P0Q8
T6 chain: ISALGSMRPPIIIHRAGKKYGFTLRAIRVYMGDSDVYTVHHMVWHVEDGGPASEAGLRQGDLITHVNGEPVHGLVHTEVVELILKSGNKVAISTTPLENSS

[9] = molecular target: T7, GST-Syntrophin gamma 1 PDZ domain 1 (Homo sapiens (Human)), Q9NSN8
T7 chain: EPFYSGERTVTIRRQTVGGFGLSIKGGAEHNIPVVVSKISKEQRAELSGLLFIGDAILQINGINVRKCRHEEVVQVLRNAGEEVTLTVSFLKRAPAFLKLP

[10] = molecular target: GST-KIAA807 [GST: P08515]
[11] = molecular target: T8, GST-LIM-RIL PDZ domain 1 (Homo sapiens (Human)), P50479
T8 chain: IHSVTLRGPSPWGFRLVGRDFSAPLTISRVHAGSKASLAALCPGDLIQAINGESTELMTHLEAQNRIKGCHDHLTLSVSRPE

[12] = molecular target: T9, GST-MINT1 PDZ domain 2 (Mus musculus (Mouse)), B2RUJ5
T9 chain: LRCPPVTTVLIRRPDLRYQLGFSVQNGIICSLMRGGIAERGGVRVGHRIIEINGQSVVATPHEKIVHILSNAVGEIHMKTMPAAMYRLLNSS

[13] = molecular target: GST-Atrophin-1 Interacting Protein PDZ domain 5 (Rattus norvegicus (Rat)), O88382
[14] = molecular target: T10, GST-FLJ 10324 PDZ domain 1 [GST: P08515]
T10 chain: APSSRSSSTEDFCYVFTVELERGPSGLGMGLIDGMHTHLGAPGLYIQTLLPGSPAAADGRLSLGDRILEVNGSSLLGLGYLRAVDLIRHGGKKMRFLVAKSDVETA

[15] = molecular target: T11, GST-PTPL1 PDZ domain 2 (Homo sapiens (Human)), Q12923
T11 chain: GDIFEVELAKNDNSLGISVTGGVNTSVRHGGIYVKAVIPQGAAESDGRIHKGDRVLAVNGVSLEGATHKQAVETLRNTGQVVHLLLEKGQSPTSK

[16] = molecular target: GST-Atrophin-1 Interacting Protein PDZ domain 3 (Rattus norvegicus (Rat)), O88382
[17] = molecular target: T12, GST-Outer Membrane PDZ domain 1 (Homo sapiens (Human)), P57105
T12 chain: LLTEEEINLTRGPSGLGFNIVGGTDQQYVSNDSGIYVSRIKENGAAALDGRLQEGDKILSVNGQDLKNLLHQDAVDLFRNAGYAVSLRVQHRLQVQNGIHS

[18] = molecular target: GST-BAI-1 Associated Protein PDZ domain 6 (Homo sapiens (Human)), Q96QZ7
[19] = molecular target: T13, GST-INADL PDZ domain 3 (Homo sapiens (Human)), Q8NI35
T13 chain: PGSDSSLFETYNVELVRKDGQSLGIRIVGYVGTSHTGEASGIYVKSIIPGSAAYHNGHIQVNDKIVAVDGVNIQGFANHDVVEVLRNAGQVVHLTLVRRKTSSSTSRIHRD

[20] = molecular target: T14, GST-APXL-1 PDZ domain 1 (Homo sapiens (Human)), Q13796
T14 chain: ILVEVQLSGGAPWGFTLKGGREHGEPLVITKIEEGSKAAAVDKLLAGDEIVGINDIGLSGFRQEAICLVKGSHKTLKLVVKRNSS

[21] = molecular target: GST-BAI-1 Associated Protein PDZ domain 2 (Mus musculus (Mouse)), Q6RHR9
[22] = molecular target: T15, GST-FLJ00011 PDZ domain 1 (Homo sapiens (Human)), Q9H5P4
T15 chain: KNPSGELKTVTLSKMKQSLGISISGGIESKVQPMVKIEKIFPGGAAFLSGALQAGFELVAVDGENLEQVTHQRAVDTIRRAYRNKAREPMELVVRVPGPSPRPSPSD
Note: key of the grades not given here.

GST-BAI-1 Associated Protein PDZ domain 6 (Homo sapiens (Human)), Q96QZ7, sequence (Q96QZ7 1143-1233): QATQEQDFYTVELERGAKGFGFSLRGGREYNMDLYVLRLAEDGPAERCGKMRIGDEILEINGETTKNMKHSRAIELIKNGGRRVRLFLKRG
GST-Atrophin-1 Interacting Protein PDZ domain 3 (Rattus norvegicus (Rat)), O88382, sequence (O88382 774-865, tags or fused parts left off): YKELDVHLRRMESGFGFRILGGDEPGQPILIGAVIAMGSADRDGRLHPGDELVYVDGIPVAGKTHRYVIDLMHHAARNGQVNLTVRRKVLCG
GST-KIAA1634 PDZ domain 5 (Homo sapiens (Human)), Q5TCQ9, sequence (Q5TCQ9 other isoform, or with tags, fused parts or gaps): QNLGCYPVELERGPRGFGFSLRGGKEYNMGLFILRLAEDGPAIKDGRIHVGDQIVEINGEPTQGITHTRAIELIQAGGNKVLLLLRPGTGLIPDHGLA
GST-Atrophin-1 Interacting Protein PDZ domain 5 (Rattus norvegicus (Rat)), O88382, sequence (O88382 1128-1225): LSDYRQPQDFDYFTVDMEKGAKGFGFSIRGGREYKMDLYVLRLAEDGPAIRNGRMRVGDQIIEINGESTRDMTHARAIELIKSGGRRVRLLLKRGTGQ
GST-PAR3 PDZ domain 3 (Homo sapiens (Human)), Q8TEW0, sequence (Q8TEW0 579-681): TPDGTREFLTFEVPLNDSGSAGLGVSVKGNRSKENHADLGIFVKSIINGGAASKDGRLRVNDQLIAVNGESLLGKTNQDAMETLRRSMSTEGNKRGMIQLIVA
GST-KIAA807 [GST: P08515], sequence (P08515 whole entry, the tested form may be a part): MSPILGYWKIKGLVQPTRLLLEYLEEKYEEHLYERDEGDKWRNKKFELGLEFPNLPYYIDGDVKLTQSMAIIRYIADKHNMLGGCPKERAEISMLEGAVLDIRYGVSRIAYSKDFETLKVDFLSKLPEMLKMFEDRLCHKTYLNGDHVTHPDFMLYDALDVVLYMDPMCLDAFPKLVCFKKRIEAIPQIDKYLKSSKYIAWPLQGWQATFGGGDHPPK
GST-BAI-1 Associated Protein PDZ domain 2 (Mus musculus (Mouse)), Q6RHR9, sequence (Q6RHR9 455-558): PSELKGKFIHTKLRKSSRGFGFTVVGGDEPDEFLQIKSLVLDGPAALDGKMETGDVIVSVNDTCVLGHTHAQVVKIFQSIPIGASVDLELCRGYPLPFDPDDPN

PYSELNYETSHYPASPDSWV (modifications not checked) [catenin - delta 2]
Classification [1]: 2 A450 class
Classification [2]: 5 A450 class
Classification [3]: 1 A450 class
Classification [4]: 2 A450 class
Classification [5]: 1 A450 class
Classification [6]: 3 A450 class
Classification [7]: 3 A450 class
Classification [8]: 3 A450 class
Classification [9]: 1 A450 class
Classification [10]: 4 A450 class
Classification [11]: 2 A450 class
Classification [12]: 3 A450 class
Classification [13]: 5 A450 class
Classification [14]: 3 A450 class
Classification [15]: 5 A450 class
Classification [16]: 1 A450 class
Classification [17]: 5 A450 class

HDFRRAFKKILARGDRKRIV (modifications not checked) [alpha-2A Adrenergic receptor]
Classification [1]: 2 A450 class
Classification [2]: 1 A450 class
Classification [3]: 2 A450 class
Classification [4]: 4 A450 class
Classification [5]: 1 A450 class
Classification [8]: 1 A450 class
Classification [9]: 2 A450 class
Classification [18]: 3 A450 class
Classification [13]: 1 A450 class
Classification [14]: 1 A450 class
Classification [19]: 2 A450 class
Classification [15]: 2 A450 class
Classification [20]: 1 A450 class

KTMPAAMYRLLTAQEQPVYI (modifications not checked) [MINT-1]
Classification [1]: 1 A450 class
Classification [3]: 5 A450 class
Classification [5]: 3 A450 class
Classification [8]: 5 A450 class
Classification [10]: 4 A450 class
Classification [14]: 5 A450 class

VPGALDYAAFSSALYGESDL (modifications not checked) [a-actinin 2]
Classification [1]: 2 A450 class
Classification [2]: 5 A450 class
Classification [3]: 1 A450 class
Classification [4]: 1 A450 class
Classification [21]: 1 A450 class
Classification [6]: 5 A450 class
Classification [7]: 5 A450 class
Classification [8]: 5 A450 class
Classification [9]: 1 A450 class
Classification [10]: 5 A450 class
Classification [11]: 5 A450 class
Classification [18]: 5 A450 class
Classification [12]: 1 A450 class
Classification [13]: 5 A450 class
Classification [19]: 1 A450 class
Classification [15]: 1 A450 class
Classification [20]: 5 A450 class
Classification [17]: 1 A450 class

TQGFPGPATWRRISSLESEV (modifications not checked) [NMDA Glutamate Receptor 2C (cysteine-free)]
Classification [1]: 3 A450 class
Classification [2]: 4 A450 class
Classification [4]: 3 A450 class
Classification [21]: 4 A450 class
Classification [6]: 5 A450 class
Classification [7]: 1 A450 class
Classification [8]: 5 A450 class
Classification [22]: 2 A450 class
Classification [9]: 4 A450 class
Classification [10]: 4 A450 class
Classification [11]: 5 A450 class
Classification [18]: 2 A450 class
Classification [12]: 1 A450 class
Classification [13]: 5 A450 class
Classification [19]: 2 A450 class
Classification [15]: 5 A450 class
Classification [20]: 1 A450 class
Classification [16]: 2 A450 class
Classification [17]: 5 A450 class

ELLQFCRTPNPALKNGQYWV (modifications not checked) [CSPG4 (chondroitin sulfae proteoglycan 4, melanoma-associated)]
Classification [1]: 5 A450 class
Classification [2]: 2 A450 class
Classification [3]: 3 A450 class
Classification [21]: 2 A450 class
Classification [5]: 5 A450 class
Classification [6]: 1 A450 class
Classification [7]: 2 A450 class
Classification [8]: 1 A450 class
Classification [10]: 1 A450 class
Classification [11]: 2 A450 class
Classification [18]: 4 A450 class
Classification [12]: 5 A450 class
Classification [13]: 2 A450 class
Classification [14]: 5 A450 class
Classification [19]: 3 A450 class
Classification [20]: 3 A450 class
Classification [16]: 2 A450 class
Classification [17]: 1 A450 class

PIPAGGCTFSGIFPTLTSPL (modifications not checked) [KIA 1481]
Classification [4]: 2 A450 class
Classification [21]: 2 A450 class
Classification [6]: 2 A450 class
Classification [7]: 1 A450 class
Classification [8]: 5 A450 class
Classification [22]: 2 A450 class
Classification [10]: 5 A450 class
Classification [18]: 2 A450 class
Classification [12]: 3 A450 class
Classification [20]: 5 A450 class

ILNSIQVMRAQMNQIQSVEV (modifications not checked) [ephrin B2]
Classification [1]: 2 A450 class
Classification [2]: 1 A450 class
Classification [3]: 2 A450 class
Classification [4]: 3 A450 class
Classification [5]: 2 A450 class
Classification [6]: 2 A450 class
Classification [8]: 2 A450 class
Classification [22]: 2 A450 class
Classification [9]: 2 A450 class
Classification [10]: 2 A450 class
Classification [11]: 2 A450 class
Classification [18]: 2 A450 class
Classification [12]: 3 A450 class
Classification [13]: 2 A450 class
Classification [14]: 2 A450 class
Classification [19]: 2 A450 class
Classification [15]: 2 A450 class
Classification [20]: 1 A450 class
Classification [16]: 1 A450 class

AWDDSARAAGGQGLHVTAL (modifications not checked) [LPAP]
Classification [4]: 1 A450 class
Classification [21]: 2 A450 class
Classification [5]: 1 A450 class
Classification [6]: 5 A450 class
Classification [8]: 5 A450 class
Classification [22]: 4 A450 class
Classification [10]: 5 A450 class
Classification [12]: 1 A450 class
Classification [13]: 2 A450 class
Classification [14]: 1 A450 class
Classification [15]: 1 A450 class
Classification [20]: 1 A450 class

QISPGGLEPPSEKHFRETEV (modifications not checked) [TAX]
Classification [1]: 1 A450 class
Classification [2]: 1 A450 class
Classification [4]: 3 A450 class
Classification [21]: 5 A450 class
Classification [6]: 5 A450 class
Classification [7]: 1 A450 class
Classification [8]: 5 A450 class
Classification [22]: 1 A450 class
Classification [9]: 5 A450 class
Classification [10]: 5 A450 class
Classification [11]: 1 A450 class
Classification [18]: 1 A450 class
Classification [13]: 3 A450 class
Classification [14]: 1 A450 class
Classification [19]: 1 A450 class
Classification [15]: 2 A450 class
Classification [16]: 1 A450 class
Classification [17]: 5 A450 class

VGTLLLERVIFPSVKIATLV (modifications not checked) [AdenoE4 typ9]
Classification [21]: 5 A450 class
Classification [5]: 3 A450 class
Classification [8]: 3 A450 class
Classification [22]: 1 A450 class
Classification [10]: 4 A450 class
Classification [18]: 1 A450 class
Classification [12]: 2 A450 class
Classification [14]: 3 A450 class
Classification [15]: 3 A450 class
Classification [16]: 4 A450 class
Classification [17]: 5 A450 class
